According to article doi:10.1101/2023.01.26.525693:
pKd: −log10 of the molar value.

Columns and labels:
[1] = target: MDM2_(D.rerio) SWIB domain (zebra fish (Danio rerio)); assay: stopped-flow spectroscopy
[2] = target: MDM2_(L.camtschaticum) SWIB domain (arctic lamprey (Lethenteron camtschaticum)); assay: fluorescence polarisation
[3] = target: MDM2_(M.trossulus) SWIB domain (bay mussel (Mytilus trossulus)); assay: fluorescence polarisation

Row | pKd [1] | Substance | also measured
1 | 5.72 | p53TAD_(D.rerio)[14–27] (peptide) | –
2 | 6.47 | p53TAD_(D.rerio)^N26L (peptide) | –
3 | 5.64 | p53TAD_(D.rerio)^insertT[18] (peptide) | –
4 | – | p53TAD_(L.camtschaticum) (peptide) | pKd [2]: 3.60
5 | – | p53TAD_(M.trossulus) (peptide) | pKd [3]: 4.82
6 | 6.92 | p73TAD_(D.rerio) (peptide) | –
